Reference: US20250262242A1 (published 2025)
Where a chain is given by its changes, count along the chain named.

Assays:
[1] = target: T1, EBV BRLF1 peptide on HLA-A*02:01 (human); experiment: activation reporter or marker
T1 peptide: YVLDHLIVV

[2] = target: T2, EBV LMP2 peptide on HLA-A*02:01 (human); experiment: activation reporter or marker
T2 peptide: CLGGLLTMV

[3] = target: T3, EBV BZLF1 peptide on HLA-B*35:01 (human); experiment: activation reporter or marker
T3 peptide: EPLPQGQLTAY

[4] = target: T4, EBV LMP2 (LMP2A) peptide on HLA-A*02:01 (human); experiment: activation reporter or marker
T4 peptide: MGSLEMVPM

[5] = target: T5, mutant splice factor-induced (SF3B1mut) splice variant of MAPK8IP2 peptide on HLA-A*02:01 (human); experiment: killing
T5 peptide: RLPGVLPRA

[6] = target: T6, HERV-K gag protein peptide on HLA-A*02:01 (human); experiment: killing
T6 peptide: FLQFKTWWI

[7] = target: T5, mutant splice factor-induced (SF3B1mut) …; experiment: multimer staining

B1: TCR_A0005 (TCR, V domains shown)
Valpha: AQKITQTQPGMFVQEKEAVTLDCTYDTSDQSYGLFWYKQPSSGEMIFLIYQGSYDEQNATEGRYSLNFQKARKSANLVISASQLGDSAMYFCAMREGGNFNKFYFGSGTKLNVKP
Vbeta: SAVISQKPSRDICQRGTSLTIQCQVDSQVTMMFWYRQQPGQSLTLIATANQGSEATYESGFVIDKFPISRPNLTFSTLTVSNMSPEDSSIYLCSVGGTSGTLPANEQFFGPGTRLTVL
binding result [1]: recognises

B2: TCR_A0064 (TCR, V domains shown)
Valpha: GQQVMQIPQYQHVQEGEDFTTYCNSSTTLSNIQWYKQRPGGHPVFLIQLVKSGEVKKQKRLTFQFGEAKKNSSLHITATQTTDVGTYFCAGAGAGSYQLTFGKGTKLSVIP
Vbeta: KAGVTQTPRYLIKTRGQQVTLSCSPISGHRSVSWYQQTPGQGLQFLFEYFSETQRNKGNFPGRFSGRQFSNSRSEMNVSTLELGDSALYLCASSLEGQASSYEQYFGPGTRLTVT
binding result [2]: recognises

B3: TCR_A0066 (TCR, V domains shown)
Valpha: B2 Valpha
Vbeta: B2 Vbeta with L95A
binding result [2]: recognises

B4: TCR_A0003 (TCR, V domains shown)
Valpha: AQSVSQHNHHVILSEAASLELGCNYSYGGTVNLFWYVQYPGQHLQLLLKYFSGDPLVKGIKGFEAEFIKSKFSFNLRKPSVQWSDTAEYFCAGGAAGNKLTFGGGTRVLVKP
Vbeta: EAGVAQSPRYKIIEKRQSVAFWCNPISGHATLYWYQQILGQGPKLLIQFQNNGVVDDSQLPKDRFSAERLKGVDSTLKIQPAKLEDSAVYLCASSSPLGGFAGANVLTFGAGSRLTVL
binding result [1]: recognises

B5: TCR_A0099 (TCR, V domains shown)
Valpha: ILNVEQSPQSLHVQEGDSTNFTCSFPSSNFYALHWYRWETAKSPEALFVMTLNGDEKKKGRISATLNTKEGYSYLYIKGSQPEDSATYLCAVNAGGTSYGKLTFGQGTILTVHP
Vbeta: EAGVAQSPRYKIIEKRQSVAFWCNPISGHATLYWYQQILGQGPKLLIQFQNNGVVDDSQLPKDRFSAERLKGVDSTLKIQPAKLEDSAVYLCASSSDWTANNEQFFGPGTRLTVL
binding result [3]: recognises

B6: TCR_A0001 (TCR, V domains shown)
Valpha: AQSVSQHNHHVILSEAASLELGCNYSYGGTVNLFWYVQYPGQHLQLLLKYFSGDPLVKGIKGFEAEFIKSKFSFNLRKPSVQWSDTAEYFCAVKDTDKLIFGTGTRLQVFP
Vbeta: not shown
binding result [1]: recognises

B7: TCR_A0002 (TCR, V domains shown)
Valpha: B6 Valpha
Vbeta: DTAVSQTPKYLVTQMGNDKSIKCEQNLGHDTMYWYKQDSKKFLKIMFSYNNKELIINETVPNRFSPKSPDKAHLNLHINSLELGDSAVYFCASSPDFNEQFFGPGTRLTVL
binding result [1]: recognises

B8: TCR_A0004 (TCR, V domains shown)
Valpha: B6 Valpha
Vbeta: not shown
binding result [1]: recognises

B9: TCR_A0015 (TCR, V domains shown)
Valpha: AQSVTQLDSQVPVFEEAPVELRCNYSSSVSVYLFWYVQYPNQGLQLLLKYLSGSTLVKGINGFEAEFNKSQTSFHLRKPSVHISDTAEYFCAVSALSYNQGGKLIFGQGTELSVKP
Vbeta: DAGVIQSPRHEVTEMGQEVTLRCKPISGHNSLFWYRQTMMRGLELLIYFNNNVPIDDSGMPEDRFSAKMPNASFSTLKIQPSEPRDSAVYFCASSWTGNEQYFGPGTRLTVT
binding result [4]: recognises

B10: TCR_A0130 (TCR, V domains shown)
Valpha: AQTVTQSQPEMSVQEAETVTLSCTYDTSESNYYLFWYKQPPSRQMILVIRQEAYKQQNATENRFSVNFQKAAKSFSLKISDSQLGDTAMYFCAFMIPDSNYQLIWGAGTKLIIKP
Vbeta: ETGVTQTPRHLVMGMTNKKSLKCEQHLGHNAMYWYKQSAKKPLELMFVYNFKEQTENNSVPSRFSPECPNSSHLFLHLHTLQPEDSALYLCASSQVGTSGRGGELFFGEGSRLTVL
binding result [5]: recognises

B11: TCR_A0100 (TCR, V domains shown)
Valpha: KQEVTQIPAALSVPEGENLVLNCSFTDSAIYNLQWFRQDPGKGLTSLLLIQSSQREQTSGRLNASLDKSSGRSTLYIAASQPGDSATYLCAVGGNNNDMRFGAGTRLTVKP
Vbeta: AAGVIQSPRHLIKEKRETATLKCYPIPRHDTVYWYQQGPGQDPQFLISFYEKMQSDKGSIPDRFSAQQFSDYHSELNMSSLELGDSALYFCASSLINTEAFFGQGTRLTVV
binding result [6]: recognises

B12: TCR_A0061 (TCR, V domains shown)
Valpha: KQEVTQIPAALSVPEGENLVLNCSFTDSAIYNLQWFRQDPGKGLTSLLLIQSSQREQTSGRLNASLDKSSGRSTLYIAASQPGDSATYLCAVLMDSNYQLIWGAGTKLIIKP
Vbeta: DAGITQSPRYKITETGRQVTLMCHQTWSHSYMFWYRQDLGHGLRLIYYSAAADITDKGEVPDGYVVSRSKTENFPLTLESATRSQTSVYFCASSSDGMNTEAFFGQGTRLTVV
binding result [2]: recognises

B13: TCR_A0131 (TCR, V domains shown)
Valpha: AQTVTQSQPEMSVQEAETVTLSCTYDTSENNYYLFWYKQPPSRQMILVIRQEAYKQQNATENRFSVNFQKAAKSFSLKISDSQLGDTAMYFCAFMLIDSGTYKYIFGTGTRLKVLA
Vbeta: EAQVTQNPRYLITVTGKKLTVTCSQNMNHEYMSWYRQDPGLGLRQIYYSMNVEVTDKGDVPEGYKVSRKEKRNFPLILESPSPNQTSLYFCASSLGQGTETQYFGPGTRLLVL
binding result [5]: recognises

B14: TCR_A0358 (TCR, V domains shown)
Valpha: B13 Valpha with L96G, I97P
Vbeta: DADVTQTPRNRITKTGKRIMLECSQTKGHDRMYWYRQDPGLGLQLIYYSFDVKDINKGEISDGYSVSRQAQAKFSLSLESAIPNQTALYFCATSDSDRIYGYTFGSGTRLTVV
binding result [7]: recognises
